Molecular target: T1, nucleocapsid protein (N) (vesicular stomatitis virus), P03521
T1 chain: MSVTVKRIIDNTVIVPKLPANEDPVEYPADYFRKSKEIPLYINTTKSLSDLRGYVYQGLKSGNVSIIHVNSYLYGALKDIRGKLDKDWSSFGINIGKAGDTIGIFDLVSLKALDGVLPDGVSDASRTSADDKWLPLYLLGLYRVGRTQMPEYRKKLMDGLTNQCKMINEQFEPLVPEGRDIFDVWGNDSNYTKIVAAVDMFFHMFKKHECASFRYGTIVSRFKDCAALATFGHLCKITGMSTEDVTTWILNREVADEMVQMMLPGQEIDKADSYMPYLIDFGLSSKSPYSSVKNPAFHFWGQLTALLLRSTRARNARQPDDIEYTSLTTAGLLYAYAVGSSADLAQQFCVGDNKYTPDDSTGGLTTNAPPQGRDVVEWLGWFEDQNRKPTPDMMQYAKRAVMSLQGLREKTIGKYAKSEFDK
Assay: cryo-EM structure
Conditions: remark: other sources report otherwise

B1: matrix protein (M), P03519 1-229 (natural protein)
chain: MSSLKKILGLKGKGKKSKKLGIAPPPYEEDTSMEYAPSAPIDKSYFGVDEMDTYDPNQLRYEKFFFTVKMTVRSNRPFRTYSDVAAAVSHWDHMYIGMAGKRPFYKILAFLGSSNLKATPAVLADQGQPEYHTHCEGRAYLPHRMGKTPPMLNVPEHFRRPFNIGLYKGTIELTMTIYDDESLEAAPMIWDHFNSSKFSDFREKALMFGLIVEKKASGAWVLDSISHFK
- stoichiometry N: 2
